Changes are numbered by the printed parent chain. Blank lines part the entries; values can stand above or below the binder they belong to.
Assays:
[1] = target: Human CD3 on T cells in donor PBMC (human) (UniProt P07766); assay: cell-based or functional assay
[2] = target: Human CD3εδ heterodimeric Fc fusion (human); assay: ForteBio BLI, Fab KD, monovalent
[3] = target: Cynomolgus CD3εδ heterodimeric Fc fusion (cynomolgus); assay: ForteBio BLI, Fab KD, monovalent

Sequence of Human CD3 on T cells in donor PBMC (human) (P07766 23-207): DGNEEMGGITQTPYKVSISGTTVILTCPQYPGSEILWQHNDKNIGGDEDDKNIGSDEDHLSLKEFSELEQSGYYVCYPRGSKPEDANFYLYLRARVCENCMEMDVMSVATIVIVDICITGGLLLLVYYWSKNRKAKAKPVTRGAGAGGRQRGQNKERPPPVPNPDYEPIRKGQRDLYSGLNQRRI

D5801 10 nM Fab IFNg [1]: 0 pg/mL | Fab IFNg, donor A4560 PBMC, 0.3 nM [1]: 0 pg/mL | Fab IFNg, donor A4560 PBMC, 10 nM [1]: 0 pg/mL | Fab IFNg, donor D5801 PBMC, 0.3 nM [1]: 0 pg/mL
B1: ADI-26954 Fab (Fab, from a related filing, V domains shown)
VH: QVQLVQSGAEVKKPGASVKVSCKASGFNIKDYYMHWVRQAPGQRLEWMGWIDLENANTIYDAKFQGRVTITRDTSASTAYMELSSLRSEDTAVYYCARDNYGGYFYDVWGQGTLVTVSS
VL: DIVMTQSPDSLAVSLGERATINCKSSQSLLESRTGKNYLAWYQQKPGQPPKLLIYWASTRESGVPDRFSGSGSGTDFTLTISSLQAEDVAVYYCKQSYSLRTFGGGTKVEIK

Kd [2]: 1100 nM | Kd [3]: 220 nM | D5801 10 nM Fab IFNg [1]: 0 pg/mL
B2: ADI-26941 Fab (Fab, from a related filing, V domains shown)
VH: B1 VH with N55E, A56G, N100Q, G103R
VL: B1 VL with E31N, S32A, L100I

Fab IFNg, donor D5801 PBMC, 10 nM [1]: 0 pg/mL
B3: ADI-26928 Fab (Fab, from a related filing, V domains shown)
VH: B1 VH with N55E, A56G, A97G, N100A, G103L
VL: B1 VL with E31N, S32A
